The source of these data is article doi:10.1101/2020.05.06.080432.

Holding throughout (assay): MST
Test [1] deals with His6-GlnK1 (Methanosarcina mazei) (UniProt Q8PYW7).
The target in test [2] is His6-GlnA1 (Methanosarcina mazei) (UniProt Q8PY99).
Test [3] concerns the target synthesized sP26 (Davids Biotechnologie), nt-647-NHS-labeled (Methanosarcina mazei).

Broadly, the Kd is the free concentration of one partner at which half of the binding sites on the other are occupied at equilibrium, for simple one-to-one binding. Lower therefore signals higher affinity. For the molecule His6-sP26 (natural protein), the Kd in test [1] stood at 1400 nM; in test [2], 45000 nM.

B1: His6-GlnK1 (natural protein)
chain: MVAMKYVIAMIRPERLDAVKRELQKIEVSRLTVSSVSGYGAQKGYMEIYRAMEYDANLLEKIKIEIAVNDEFLEPTIEAIKTGAKGSDGYVGSGKIFVLPLENVIRIRTNETGPEAI
For the molecule B1, the Kd in test [3] stood at 47 nM.

B2: His6-GlnA1 (enzyme)
chain: MVQMKKCTTKEDVLEAVKERDVKFIRTQFTDTLGIIKSWAIPAEQLEEAFENGVMFDGSSIQGFTRIEESDMKLALDPSTFRILPWRPATGAVARILGDVYLPDGNPFKGDPRYVLKTAIKEAEKMGFSMNVGPELEFFLFKLDANGNPTTELTDQGGYFDFAPLDRAQDVRRDIDYALEHMGFQIEASHHEVAPSQHEIDFRFGDVLCTADNVVTFKYVVKSIAYHKGYYASFMPKPLFGVNGSGMHSNQSLFKDGKNVFYDPDTPTKLSQDAMYYIGGLLKHIREFTAVTNPVVNSYKRLVPGYEAPVYISWSAQNRSSLIRIPATRGNGTRIELRCPDPACNPYLAFALMLRAGLEGIKNKIDPGEPTNVNIFHLSDKEREERGIRSLPADLKEAIDEMKGSKFVKEALGEHVFSHYLCAKEMEWDEYKAVVHPWELSRYLSML
In turn, B2 displayed a Kd in test [3] of 76 nM.
